Biological target: T1, syntaxin 1a (syx(183–288)) (Rattus norvegicus, UniProt P32851 183-288)
T1 construct: also called N-terminally truncated variant of syntaxin; source: in n-octyl β-D-glucopyranoside
Assay: co-purification by ion exchange chromatography (Mono Q); purified monomers mixed overnight at 4 °C, complex purified the next day on a Mono Q column
Conditions: both partners purified

T1 sequence (P32851 183-288): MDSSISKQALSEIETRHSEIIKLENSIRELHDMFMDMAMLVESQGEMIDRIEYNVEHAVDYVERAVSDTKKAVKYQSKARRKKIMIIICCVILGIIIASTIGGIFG

B1: syb(49–96), C-terminal fragment of synaptobrevin (domain or fragment, Rattus norvegicus, UniProt P63045 49-96, looked up)
chain: NVDKVLERDQKLSELDDRADALQAGASQFETSAAKLKRKYWWKNLKMM
notes: synaptobrevin 2 (syb), Rattus norvegicus, residues 49–96; also called synaptobrevin(49–96)
B1: binds.
